The assay deals with β2AR part of the β2AR-Gs peptide fusion construct (receptor truncated at position 365) (human) (UniProt P07550). The assay is described as follows: cell-based or functional assay.

Our source for the agonist affinity ([3H]-DHA competition binding with isoproterenol, Sf9 membranes), effect on agonist binding affinity compared with the β2AR-Gs complex and fraction of β2AR in the Ki high state ([3H]-DHA / isoproterenol competition, Sf9 membranes) values is patent publication US20120237978A1.

Regarding “last 21 amino acids of the Gαs subunit (amino acids 374-394, except for C379A), as fused in the β2AR-Gs peptide fusion construct”, the agonist affinity ([3H]-DHA competition binding with isoproterenol, Sf9 membranes) is 27 fold; the effect on agonist binding affinity compared with the β2AR-Gs complex was determined as 3.5 fold; the fraction of β2AR in the Ki high state ([3H]-DHA / isoproterenol competition, Sf9 membranes) turned out to be 0.68.
